Test results from the supplement of paper PMC10065799, “High-throughput profiling of sequence recognition by tyrosine kinases and SH2 domains using bacterial peptide display” (eLife, 2023).

Tests used:
Fes = Fes (UniProt P07332); assay: phosphorylation enrichment, bacterial display (enrichment ratio); higher = better substrate or ligand; peptides without Tyr show the background
EPHB2 = EPHB2 (UniProt P29323); assay: as above
AncSZ = assay: as above
Fer (mouse) = assay: as above
MERTK = MERTK (UniProt Q12866); assay: as above
c-Src = assay: as above
FGFR1 = FGFR1 (UniProt P11362); assay: as above
Fyn = Fyn (UniProt P06241); assay: as above
c-Abl (mouse) = assay: as above
FGFR3 = FGFR3 (UniProt P22607); assay: as above
Hck = Hck (UniProt P08631); assay: as above
Jak2 = Jak2 (UniProt O60674); assay: as above
EPHB1 = EPHB1 (UniProt P54762); assay: as above
Grb2 SH2 = Grb2 SH2 (UniProt P62993); assay: SH2 binding enrichment of the phosphorylated peptide, bacterial display (enrichment ratio); higher = better substrate or ligand; peptides without Tyr show the background
c-Src SH2 = assay: as above
SHP2-C SH2 = assay: as above
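Throughout, for SH2 binding enrichment of the phosphorylated peptide, bacterial display: peptide library displayed on the E. coli surface as eCPX fusions, selected cells deep-sequenced, score is each peptide's frequency after selection divided by its frequency in the input.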
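Throughout, for phosphorylation enrichment, bacterial display: 11-residue human phosphosite peptides and single-mutation variants displayed on the E. coli surface, counted by deep sequencing, each peptide's frequency after selection divided by its frequency in the unselected input library; frequency after pTyr selection over input frequency; kinase dosed for 20-30% of maximal phosphorylation in three min.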

FGFR1, sequence (P11362 whole entry, looked up): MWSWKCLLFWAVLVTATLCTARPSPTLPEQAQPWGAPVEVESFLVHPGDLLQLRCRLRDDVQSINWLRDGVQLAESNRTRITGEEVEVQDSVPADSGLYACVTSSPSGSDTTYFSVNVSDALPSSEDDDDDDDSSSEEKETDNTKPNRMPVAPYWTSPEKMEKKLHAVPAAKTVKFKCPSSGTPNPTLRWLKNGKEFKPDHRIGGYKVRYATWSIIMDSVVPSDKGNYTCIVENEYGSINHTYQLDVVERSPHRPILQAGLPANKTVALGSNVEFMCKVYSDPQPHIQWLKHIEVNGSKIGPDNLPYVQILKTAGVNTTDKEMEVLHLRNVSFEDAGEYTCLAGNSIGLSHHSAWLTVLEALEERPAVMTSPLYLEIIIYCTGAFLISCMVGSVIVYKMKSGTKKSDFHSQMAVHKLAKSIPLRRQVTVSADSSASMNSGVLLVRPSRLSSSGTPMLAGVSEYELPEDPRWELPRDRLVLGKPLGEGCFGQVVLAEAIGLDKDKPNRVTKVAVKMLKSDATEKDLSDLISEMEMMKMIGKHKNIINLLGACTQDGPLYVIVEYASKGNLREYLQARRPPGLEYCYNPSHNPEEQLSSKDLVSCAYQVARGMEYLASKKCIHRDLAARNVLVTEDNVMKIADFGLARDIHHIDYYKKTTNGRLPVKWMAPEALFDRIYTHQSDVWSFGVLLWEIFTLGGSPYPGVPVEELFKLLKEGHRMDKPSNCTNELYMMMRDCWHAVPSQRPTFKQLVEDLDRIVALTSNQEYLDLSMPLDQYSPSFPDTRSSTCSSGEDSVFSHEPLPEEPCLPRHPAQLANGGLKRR
Fes, sequence (P07332 whole entry, looked up): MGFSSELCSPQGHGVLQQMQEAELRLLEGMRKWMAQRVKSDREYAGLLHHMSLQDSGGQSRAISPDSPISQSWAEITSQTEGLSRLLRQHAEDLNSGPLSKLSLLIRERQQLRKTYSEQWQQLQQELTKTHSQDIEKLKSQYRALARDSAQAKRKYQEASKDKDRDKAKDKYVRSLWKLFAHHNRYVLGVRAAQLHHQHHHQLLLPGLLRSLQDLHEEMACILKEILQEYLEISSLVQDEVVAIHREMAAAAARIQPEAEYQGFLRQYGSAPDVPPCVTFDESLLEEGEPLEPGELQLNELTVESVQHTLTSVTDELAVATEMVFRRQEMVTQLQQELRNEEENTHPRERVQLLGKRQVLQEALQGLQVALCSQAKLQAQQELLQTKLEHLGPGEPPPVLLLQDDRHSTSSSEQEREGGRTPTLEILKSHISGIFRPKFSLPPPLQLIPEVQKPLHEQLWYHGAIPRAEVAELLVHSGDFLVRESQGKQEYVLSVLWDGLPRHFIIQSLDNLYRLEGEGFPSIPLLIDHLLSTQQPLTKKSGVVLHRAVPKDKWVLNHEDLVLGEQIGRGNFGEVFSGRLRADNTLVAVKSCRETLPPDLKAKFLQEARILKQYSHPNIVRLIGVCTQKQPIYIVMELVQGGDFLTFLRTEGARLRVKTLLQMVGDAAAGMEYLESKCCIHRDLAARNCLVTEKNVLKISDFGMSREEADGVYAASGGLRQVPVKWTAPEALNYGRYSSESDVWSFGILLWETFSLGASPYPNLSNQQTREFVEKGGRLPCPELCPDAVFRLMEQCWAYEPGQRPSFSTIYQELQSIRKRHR
EPHB2, sequence (P29323 whole entry, looked up): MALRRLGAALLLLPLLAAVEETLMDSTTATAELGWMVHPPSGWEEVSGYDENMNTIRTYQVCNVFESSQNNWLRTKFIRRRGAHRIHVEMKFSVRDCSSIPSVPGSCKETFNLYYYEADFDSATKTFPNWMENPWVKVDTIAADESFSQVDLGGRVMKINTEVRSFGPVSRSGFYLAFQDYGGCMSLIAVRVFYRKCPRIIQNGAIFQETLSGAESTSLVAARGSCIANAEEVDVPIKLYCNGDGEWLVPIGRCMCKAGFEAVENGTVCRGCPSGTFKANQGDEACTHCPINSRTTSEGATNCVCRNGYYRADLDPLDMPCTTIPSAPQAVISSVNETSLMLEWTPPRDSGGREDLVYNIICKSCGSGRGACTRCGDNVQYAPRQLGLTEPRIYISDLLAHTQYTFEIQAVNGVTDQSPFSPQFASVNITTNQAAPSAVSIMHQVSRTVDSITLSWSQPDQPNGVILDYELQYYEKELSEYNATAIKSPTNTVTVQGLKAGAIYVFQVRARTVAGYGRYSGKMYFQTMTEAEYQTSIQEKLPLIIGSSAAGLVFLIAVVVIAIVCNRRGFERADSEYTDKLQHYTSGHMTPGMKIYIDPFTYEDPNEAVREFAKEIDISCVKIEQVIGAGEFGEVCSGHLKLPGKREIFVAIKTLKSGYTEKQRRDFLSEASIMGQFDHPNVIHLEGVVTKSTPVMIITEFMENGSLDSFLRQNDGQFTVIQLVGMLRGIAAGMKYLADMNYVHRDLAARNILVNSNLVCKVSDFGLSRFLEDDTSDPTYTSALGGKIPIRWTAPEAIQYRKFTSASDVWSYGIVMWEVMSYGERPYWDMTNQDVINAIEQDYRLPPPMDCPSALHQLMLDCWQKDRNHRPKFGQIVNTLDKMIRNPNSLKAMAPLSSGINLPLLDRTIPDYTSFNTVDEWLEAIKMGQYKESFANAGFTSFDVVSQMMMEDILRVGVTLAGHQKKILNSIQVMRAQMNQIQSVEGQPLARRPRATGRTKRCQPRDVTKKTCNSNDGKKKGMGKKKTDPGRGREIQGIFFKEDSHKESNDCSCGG
MERTK, sequence (Q12866 whole entry, looked up): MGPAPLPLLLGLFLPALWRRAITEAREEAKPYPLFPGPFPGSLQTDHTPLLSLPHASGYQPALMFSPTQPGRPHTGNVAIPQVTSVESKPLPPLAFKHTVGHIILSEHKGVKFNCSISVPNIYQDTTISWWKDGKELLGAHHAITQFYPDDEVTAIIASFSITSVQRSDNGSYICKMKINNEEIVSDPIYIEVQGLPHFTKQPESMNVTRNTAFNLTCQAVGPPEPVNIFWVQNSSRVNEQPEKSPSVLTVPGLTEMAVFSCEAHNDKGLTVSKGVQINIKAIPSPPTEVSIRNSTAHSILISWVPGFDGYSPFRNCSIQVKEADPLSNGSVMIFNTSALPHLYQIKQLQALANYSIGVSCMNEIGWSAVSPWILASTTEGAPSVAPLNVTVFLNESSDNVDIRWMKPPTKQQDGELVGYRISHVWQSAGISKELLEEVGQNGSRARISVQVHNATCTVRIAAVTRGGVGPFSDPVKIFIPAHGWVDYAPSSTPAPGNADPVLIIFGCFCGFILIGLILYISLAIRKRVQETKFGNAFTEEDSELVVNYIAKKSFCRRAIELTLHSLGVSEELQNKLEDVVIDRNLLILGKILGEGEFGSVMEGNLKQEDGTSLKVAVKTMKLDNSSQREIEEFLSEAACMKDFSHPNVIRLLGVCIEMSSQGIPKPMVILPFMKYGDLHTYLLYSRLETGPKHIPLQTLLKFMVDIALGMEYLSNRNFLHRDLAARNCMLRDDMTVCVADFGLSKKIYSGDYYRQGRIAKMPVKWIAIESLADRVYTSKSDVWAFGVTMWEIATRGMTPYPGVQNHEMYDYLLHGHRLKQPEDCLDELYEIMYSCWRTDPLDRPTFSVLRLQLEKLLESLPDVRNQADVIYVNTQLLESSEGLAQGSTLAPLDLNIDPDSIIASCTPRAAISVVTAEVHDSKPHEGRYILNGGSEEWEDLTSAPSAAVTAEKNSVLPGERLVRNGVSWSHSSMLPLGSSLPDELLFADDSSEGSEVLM
EPHB1, sequence (P54762 whole entry, looked up): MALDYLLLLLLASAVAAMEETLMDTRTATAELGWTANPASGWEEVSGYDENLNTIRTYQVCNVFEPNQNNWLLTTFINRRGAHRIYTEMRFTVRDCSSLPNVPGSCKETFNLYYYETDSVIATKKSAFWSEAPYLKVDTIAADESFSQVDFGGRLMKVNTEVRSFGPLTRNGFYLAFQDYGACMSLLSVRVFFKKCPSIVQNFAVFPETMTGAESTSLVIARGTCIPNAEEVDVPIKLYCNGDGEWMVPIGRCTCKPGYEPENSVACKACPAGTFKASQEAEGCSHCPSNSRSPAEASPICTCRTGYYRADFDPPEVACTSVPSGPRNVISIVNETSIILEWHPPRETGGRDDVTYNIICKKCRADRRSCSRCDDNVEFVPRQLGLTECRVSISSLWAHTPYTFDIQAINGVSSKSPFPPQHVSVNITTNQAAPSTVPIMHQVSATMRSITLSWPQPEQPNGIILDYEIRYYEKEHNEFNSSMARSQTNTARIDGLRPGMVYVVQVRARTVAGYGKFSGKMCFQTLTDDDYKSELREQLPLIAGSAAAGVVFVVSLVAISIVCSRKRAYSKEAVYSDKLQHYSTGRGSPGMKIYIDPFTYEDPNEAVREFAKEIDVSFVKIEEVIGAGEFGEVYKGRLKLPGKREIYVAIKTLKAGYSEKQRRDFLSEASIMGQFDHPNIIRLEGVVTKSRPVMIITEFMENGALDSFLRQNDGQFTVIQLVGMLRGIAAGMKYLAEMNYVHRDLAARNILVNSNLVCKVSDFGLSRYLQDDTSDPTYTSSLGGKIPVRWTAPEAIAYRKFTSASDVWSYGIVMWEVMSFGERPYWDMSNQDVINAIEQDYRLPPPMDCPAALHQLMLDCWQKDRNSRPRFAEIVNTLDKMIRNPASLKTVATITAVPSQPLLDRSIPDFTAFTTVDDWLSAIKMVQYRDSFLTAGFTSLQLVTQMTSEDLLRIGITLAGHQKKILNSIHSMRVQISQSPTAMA
Grb2 SH2, sequence (P62993 whole entry, looked up): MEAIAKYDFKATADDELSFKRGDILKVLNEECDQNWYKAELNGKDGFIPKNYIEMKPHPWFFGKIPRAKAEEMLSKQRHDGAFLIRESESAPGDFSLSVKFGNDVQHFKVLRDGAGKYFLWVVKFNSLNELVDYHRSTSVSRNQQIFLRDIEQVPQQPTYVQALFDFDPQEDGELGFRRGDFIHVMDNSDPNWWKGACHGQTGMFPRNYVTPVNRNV

Sequence | phosphorylation enrichment (Fes) | phosphorylation enrichment (EPHB2) | phosphorylation enrichment (AncSZ) | phosphorylation enrichment (Fer (mouse)) | phosphorylation enrichment (MERTK) | phosphorylation enrichment (c-Src) | phosphorylation enrichment (FGFR1) | phosphorylation enrichment (Fyn) | phosphorylation enrichment (c-Abl (mouse)) | phosphorylation enrichment (FGFR3) | phosphorylation enrichment (Hck) | phosphorylation enrichment (Jak2) | phosphorylation enrichment (EPHB1) | SH2 binding enrichment (Grb2 SH2) | SH2 binding enrichment (c-Src SH2) | SH2 binding enrichment (SHP2-C SH2)
SIKDKYVTAVF [KCNH2_Y611_L615V_YF] | 0.794 | 0.475 | 0.667 | 0.523 | 0.443 | 0.501 | 0.491 | 0.543 | 0.682 | 0.541 | 0.467 | 0.839 | 0.48 | 0.82 | 0.538 | 0.658
SIKDKYVTVLY [KCNH2_Y611_A614V] | 0.903 | 0.506 | 0.836 | 0.512 | 0.437 | 0.403 | 0.68 | 0.598 | 0.594 | 0.733 | 0.455 | 0.696 | 0.519 | 0.99 | 1.06 | 2.27
SIKGKYVTALF [KCNH2_Y611_D609G_YF] | 0.798 | 0.409 | 0.771 | 0.525 | 0.414 | 0.495 | 0.361 | 0.406 | 0.617 | 0.449 | 0.408 | 0.77 | 0.519 | 0.988 | 0.735 | 0.806
SILAVYSKDNF [PANK2_Y400_YF] | 1.69 | 0.76 | 0.868 | 0.438 | 0.995 | 1.94 | 0.662 | 0.862 | 0.522 | 0.709 | 0.872 | 0.867 | 0.58 | 0.802 | 0.716 | 0.975
SKLTIYDGRPS [MTM1_Y277_A279G] | 0.674 | 0.499 | 0.713 | 0.409 | 0.463 | 0.612 | 0.456 | 0.539 | 0.508 | 0.508 | 1.44 | 0.589 | 0.367 | 0.94 | 0.439 | 0.638
SLAARYYNWVC [FLT4_Y1230_S1235C] | 1.47 | 0.883 | 1.4 | 0.777 | 3.49 | 0.597 | 4.96 | 0.565 | 0.957 | 3.95 | 0.728 | 1.39 | 0.907 | 6.7 | 1.87 | 1.21
SLNAVYPKAGS [OAS3_Y376_R378K] | 0.515 | 0.383 | 0.562 | 0.412 | 0.417 | 0.473 | 0.427 | 0.395 | 0.467 | 0.443 | 0.422 | 0.474 | 0.296 | 0.841 | 0.456 | 0.76
SLNAVYPRAGR [OAS3_Y376_S381R] | 0.692 | 0.414 | 0.763 | 0.384 | 0.409 | 0.525 | 0.415 | 0.471 | 0.488 | 0.445 | 0.405 | 0.655 | 0.354 | 0.851 | 0.466 | 0.63
SMEGLYSSAQD [CLIC5_Y111_T114A] | 1.55 | 1.8 | 1.51 | 4.7 | 1.52 | 3.2 | 0.522 | 2.67 | 1.05 | 0.908 | 3.19 | 1.3 | 1.62 | 0.582 | 0.733 | 0.595
SNNFIYKTLGV [FAM83B_Y639_YF] | 0.734 | 0.485 | 0.637 | 0.421 | 0.394 | 0.478 | 0.484 | 0.506 | 0.631 | 0.555 | 0.572 | 0.639 | 0.45 | 0.785 | 0.405 | 0.45
SPPILYSFYLN [FCRL6_Y239_D244N] | 1.12 | 4.36 | 1.21 | 3.7 | 9.41 | 2.87 | 0.807 | 2.18 | 1.5 | 0.882 | 2.06 | 1.22 | 3.78 | 1.63 | 0.824 | 1.69
SQAPGYSFTAA [CYCS_Y47_G42S_YF] | 0.701 | 0.465 | 0.673 | 0.546 | 0.49 | 0.414 | 0.417 | 0.443 | 0.764 | 0.53 | 0.362 | 0.673 | 0.433 | 0.701 | 0.437 | 0.577
SQINLYQDVML [ZNF806_Y33_A28S] | 2.48 | 5.9 | 1.02 | 13.9 | 1.81 | 0.934 | 1.01 | 0.965 | 0.752 | 1.06 | 1.6 | 0.847 | 13.2 | 0.846 | 0.608 | 0.771
SQPASYQRRFL [PPIG_Y320_L324F] | 0.667 | 0.579 | 0.768 | 0.364 | 0.505 | 0.466 | 0.472 | 0.425 | 0.599 | 0.439 | 0.492 | 0.631 | 0.38 | 0.711 | 0.407 | 0.61
SQSAKYDMAED [TTC21B_Y1213_I1208S] | 0.894 | 0.635 | 0.9 | 0.509 | 0.441 | 0.566 | 0.634 | 0.556 | 0.661 | 0.56 | 0.582 | 0.858 | 0.461 | 0.839 | 1.22 | 0.545
SQSPHYFRSGQ [GPATCH8_Y1038_R1043Q] | 0.524 | 0.316 | 0.551 | 0.359 | 0.419 | 0.427 | 0.366 | 0.345 | 0.456 | 0.405 | 0.325 | 0.538 | 0.435 | 0.869 | 0.484 | 0.533
SRWKLYPRMLR [HAO1_Y50] | 0.619 | 0.442 | 0.81 | 0.341 | 0.447 | 0.442 | 0.394 | 0.405 | 0.524 | 0.482 | 0.415 | 0.873 | 0.478 | 0.79 | 0.392 | 0.585
